Laboratory results reported in paper PMC10039935, “Organic electrochemical transistors as on-site signal amplifiers for electrochemical aptamer-based sensing”.

Molecular target: TGF-β1 (transforming growth factor beta 1) (UniProt P01137 279-390)
Assay: electrochemical aptamer sensor (CV/SWV, signal-off) with OECT readout; 1 mM MgCl2 in aptamer folding; aptamer on Au with MCH backfill; 1x PBS (selectivity test in bare 1x PBS); aptamer folded and MCH backfill in 1x PBS with 1 mM MgCl2; assay pH and temperature not stated
Settings: chain copies: 2; label: 5' methylene blue; 3' thiol on Au electrode; single strand, folded

Chain of TGF-β1 (transforming growth factor beta 1) (P01137 279-390): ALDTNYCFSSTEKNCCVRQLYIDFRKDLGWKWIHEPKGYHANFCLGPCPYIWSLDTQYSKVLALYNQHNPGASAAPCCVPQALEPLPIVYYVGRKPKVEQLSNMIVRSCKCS

B1: TGF-β1 aptamer (MB-modified) (XNA)
DNA: CGCTCGGCTTCACGAGATTCGTGTCGTTGTGTCCTGTACCCGCCTTGACCAGTCACTCTAGAGCATCCGGACTG
modifications: partial phosphorothioate, 5' side of some A and C, printed as * : CG*CTCGG*CTTC*ACG*AG*ATT*CGTGT*CGTTGTGT*C*CTGT*A*C*C*CG*C*CTTG*A*C*C*AGT*C*ACT*CT*AG*AGC*AT*C*CGG*A*CTG; 5' amino C6; 3' iSpC3 and thiol C3
Q: Does B1 bind?
A: Result: binds
